Source: publication PMC8056383, “Entropic Inhibition: How the Activity of a AAA+ Machine Is Modulated by Its Substrate-Binding Domain” (ACS Chemical Biology, 2021)

Assays:
[1] = target: the molecule itself; experiment: native gel or EMSA; native polyacrylamide gel electrophoresis; assembly of ClpB and ΔNClpB (Figure S2)
[2] = target: the molecule itself; experiment: native gel or EMSA; native gel electrophoresis in the presence of 2 mM ATP; assembly of the 23C-176C construct (Figure S1)

| Protein | binding result [1] | binding result [2] |
| --- | --- | --- |
| Thermus thermophilus ClpB, full-length (natural protein, ClpB, Thermus thermophilus, full-length protein (NTD, NBD1, MD, NBD2); also called TT ClpB; TT; ClpB; source: cloned into a pET28b vector, expressed and purified (protocol in the Supplementary Methods)) not shown | binds |  |
| 23C-176C double-cysteine mutant of full-length ClpB, labelled with Alexa Fluor 488 and Alexa Fluor 594 (natural protein, Alexa Fluor 488 and Alexa Fluor 594 (C5 maleimide) on the cysteines at 23 and 176, The ATPase assay used the fully labelled protein. smFRET and FLCS used one labelled protomer in hexamers of WT ClpB; source: cloned into a pET28b vector, expressed and purified (protocol in the Supplementary Methods)) not shown |  | binds |
| ΔNClpB, Thermus thermophilus ClpB lacking the N-terminal domain (domain or fragment, ClpB, Thermus thermophilus, variant beginning at residue 141 (Val); lacks the first 140 residues; In the smFRET experiments one S288C-S631C protomer labelled with AF488/AF594 sat in hexamers of unlabelled ΔNClpB; also called NTD-truncated ClpB; truncated variant; source: cloned into a pET28b vector, expressed and purified (protocol in the Supplementary Methods)) not shown | binds |  |
